This is an account of results in publication doi:10.1101/2020.05.02.074187 (bioRxiv, 2020).

Assay in all cases: single-molecule AFM dynamic force spectroscopy
Assay [1] has as its target T1, E-cadherin endogenously expressed on the apical surface of MDCK cells (canine (endogenous in MDCK), UniProt F1PAA9 157-885).
T1 sequence (looked up): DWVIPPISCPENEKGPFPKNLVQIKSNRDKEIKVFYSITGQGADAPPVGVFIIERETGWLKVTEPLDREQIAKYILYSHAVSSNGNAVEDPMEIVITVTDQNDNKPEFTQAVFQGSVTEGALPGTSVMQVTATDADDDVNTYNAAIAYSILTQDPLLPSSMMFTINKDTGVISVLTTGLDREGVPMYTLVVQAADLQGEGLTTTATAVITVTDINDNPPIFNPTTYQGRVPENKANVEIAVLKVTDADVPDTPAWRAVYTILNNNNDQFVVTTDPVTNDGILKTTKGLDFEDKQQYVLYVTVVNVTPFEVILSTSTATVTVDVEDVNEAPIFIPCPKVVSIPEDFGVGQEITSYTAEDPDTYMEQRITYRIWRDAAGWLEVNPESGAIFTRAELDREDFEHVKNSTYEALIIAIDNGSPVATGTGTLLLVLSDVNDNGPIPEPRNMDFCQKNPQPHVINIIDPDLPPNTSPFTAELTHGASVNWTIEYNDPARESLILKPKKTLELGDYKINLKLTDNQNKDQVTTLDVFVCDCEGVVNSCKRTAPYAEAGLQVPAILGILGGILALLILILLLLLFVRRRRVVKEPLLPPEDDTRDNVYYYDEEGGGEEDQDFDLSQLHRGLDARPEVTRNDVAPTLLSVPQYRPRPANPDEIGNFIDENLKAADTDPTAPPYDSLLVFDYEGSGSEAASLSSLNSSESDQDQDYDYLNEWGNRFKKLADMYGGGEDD

For assay [2], the target named is T1, E-cadherin endogenously expressed on …. This is another data set of the same source.
Assay [3] shares this target. This is another data set of the same source.

Like-named read-outs stand apart in the source and are kept apart here.

B1: recombinant E-cadherin extracellular region, biotinylated monomer with C-terminal Avi tag (domain or fragment, UniProt F1PAA9 157-712, looked up)
chain: DWVIPPISCPENEKGPFPKNLVQIKSNRDKEIKVFYSITGQGADAPPVGVFIIERETGWLKVTEPLDREQIAKYILYSHAVSSNGNAVEDPMEIVITVTDQNDNKPEFTQAVFQGSVTEGALPGTSVMQVTATDADDDVNTYNAAIAYSILTQDPLLPSSMMFTINKDTGVISVLTTGLDREGVPMYTLVVQAADLQGEGLTTTATAVITVTDINDNPPIFNPTTYQGRVPENKANVEIAVLKVTDADVPDTPAWRAVYTILNNNNDQFVVTTDPVTNDGILKTTKGLDFEDKQQYVLYVTVVNVTPFEVILSTSTATVTVDVEDVNEAPIFIPCPKVVSIPEDFGVGQEITSYTAEDPDTYMEQRITYRIWRDAAGWLEVNPESGAIFTRAELDREDFEHVKNSTYEALIIAIDNGSPVATGTGTLLLVLSDVNDNGPIPEPRNMDFCQKNPQPHVINIIDPDLPPNTSPFTAELTHGASVNWTIEYNDPARESLILKPKKTLELGDYKINLKLTDNQNKDQVTTLDVFVCDCEGVVNSCKRTAPYAEAGLQVPA
modifications: biotin (biotinylated with BirA enzyme)
As usually defined, the koff is the first-order rate constant of dissociation. For B1, the results for the koff in assay [1], in assay [2] and in assay [3] were 1.73 s⁻¹, 1.77 s⁻¹ and 2.37 s⁻¹, respectively.
